According to paper PMC10108200, “Reaction Pathways for the Enzymatic Degradation of Poly(Ethylene Terephthalate): What Characterizes an Efficient PET‐Hydrolase?” (Chembiochem, 2022):

Tests used:
Experiment in all cases: initial rates by RP-HPLC, Michaelis-Menten fit
[1] = substrate: O=C(O)c1ccc(C(=O)OCCO)cc1; type: biochemical, unidentified prokaryotic organism; conditions: 50 °C, 2 h, 0-2 mM substrate, 0.01-0.5 μM enzyme
Description: (§1) initial rates by RP-HPLC, Michaelis-Menten fit on LCC

[2] = substrate: O=C(O)c1ccc(C(=O)OCCOC(=O)c2ccc(C(=O)OCCO)cc2)cc1; type: biochemical, unidentified prokaryotic organism; conditions: 50 °C, 10 min, 0-2 mM substrate, 0.01-0.5 μM enzyme
Description: as §1

[3] = substrate: O=C(O)c1ccc(C(=O)OCCOC(=O)c2ccc(C(=O)OCCOC(=O)c3ccc(C(=O)O)cc3)cc2)cc1; type: biochemical, unidentified prokaryotic organism; conditions: 50 °C, 10 min, 0-2 mM substrate, 0.01-0.5 μM enzyme
Description: as §1

[4] = substrate: O=C(OCCO)c1ccc(C(=O)OCCO)cc1; type: biochemical, unidentified prokaryotic organism; conditions: 50 °C, 10 min, 0-2 mM substrate, 0.01-0.5 μM enzyme
Description: as §1

[5] = substrate: O=C(O)c1ccc(C(=O)OCCO)cc1; type: biochemical, Thermobifida fusca; conditions: 50 °C, 2 h, 0-2 mM substrate, 0.01-0.5 μM enzyme
Description: (§2) initial rates by RP-HPLC, Michaelis-Menten fit on TfC

[6] = substrate: O=C(O)c1ccc(C(=O)OCCOC(=O)c2ccc(C(=O)OCCO)cc2)cc1; type: biochemical, Thermobifida fusca; conditions: 50 °C, 10 min, 0-2 mM substrate, 0.01-0.5 μM enzyme
Description: as §2

[7] = substrate: O=C(O)c1ccc(C(=O)OCCOC(=O)c2ccc(C(=O)OCCOC(=O)c3ccc(C(=O)O)cc3)cc2)cc1; type: biochemical, Thermobifida fusca; conditions: 50 °C, 10 min, 0-2 mM substrate, 0.01-0.5 μM enzyme
Description: as §2

[8] = substrate: O=C(OCCO)c1ccc(C(=O)OCCO)cc1; type: biochemical, Thermobifida fusca; conditions: 50 °C, 10 min, 0-2 mM substrate, 0.01-0.5 μM enzyme
Description: as §2

[9] = substrate: O=C(O)c1ccc(C(=O)OCCOC(=O)c2ccc(C(=O)OCCO)cc2)cc1; type: biochemical, Mycothermus thermophilus; conditions: 50 °C, 10 min, 0-2 mM substrate, 0.01-0.5 μM enzyme
Description: (§3) initial rates by RP-HPLC, Michaelis-Menten fit on HiC

[10] = substrate: O=C(O)c1ccc(C(=O)OCCOC(=O)c2ccc(C(=O)OCCOC(=O)c3ccc(C(=O)O)cc3)cc2)cc1; type: biochemical, Mycothermus thermophilus; conditions: 50 °C, 10 min, 0-2 mM substrate, 0.01-0.5 μM enzyme
Description: as §3

B1: LCC (unidentified prokaryotic organism) (protein)
chain: QSNPYQRGPNPTRSALTADGPFSVATYTVSRLSVSGFGGGVIYYPTGTSLTFGGIAMSPGYTADASSLAWLGRRLASHGFVVLVINTNSRFDYPDSRASQLSAALNYLRTSSPSAVRARLDANRLAVAGHSMGGGGTLRIAEQNPSLKAAVPLTPWHTDKTFNTSVPVLIVGAEADTVAPVSQHAIPFYQNLPSTTPKVYVELDNASHFAPNSNNAAISVYTISWMKLWVDNDTRYRQFLCNVNDPALSDFRTNNRHCQ
notes: heterologously expressed and purified
- Km [1]: 1200 ± 130 µM
- kcat [1]: 0.048 ± 0.0033 s⁻¹
- Km [2]: 120 ± 35 µM
- kcat [2]: 21 ± 1.7 s⁻¹
- Km [3]: 790 ± 410 µM
- kcat [3]: 300 ± 122 s⁻¹
- Km [4]: 960 ± 160 µM
- kcat [4]: 6.2 ± 0.62 s⁻¹

B2: TfC (Thermobifida fusca YX) (protein)
chain: ANPYERGPNPTDALLEASSGPFSVSEENVSRLSASGFGGGTIYYPRENNTYGAVAISPGYTGTEASIAWLGERIASHGFVVITIDTITTLDQPDSRAEQLNAALNHMINRASSTVRSRIDSSRLAVMGHSMGGGGTLRLASQRPDLKAAIPLTPWHLNKNWSSVTVPTLIIGADLDTIAPVATHAKPFYNSLPSSISKAYLELDGATHFAPNIPNKIIGKYSVAWLKRFVDNDTRYTQFLCPGPRDGLFGEVEEYRSTCPF
- Km [5]: 3800 ± 91 µM
- Km [6]: 170 ± 16 µM
- kcat [6]: 11 ± 0.35 s⁻¹
- Km [7]: 170 ± 38 µM
- kcat [7]: 62 ± 7.3 s⁻¹
- Km [8]: 230 ± 67 µM
- kcat [8]: 1.1 ± 0.12 s⁻¹

B3: HiC (Mycothermus thermophilus) (protein)
chain: QLGAIENGLESGSANACPDAILIFARGSTEPGNMGITVGPALANGLESHIRNIWIQGVGGPYDAALATNFLPRGTSQANIDEGKRLFALANQKCPNTPVVAGGYSQGAALIAAAVSELSGAVKEQVKGVALFGYTQNLQNRGGIPNYPRERTKVFCNVGDAVCTGTLIITPAHLSYTIEARGEAARFLRDRIRA
- Km [9]: 77 ± 9.1 µM
- kcat [9]: 2.9 ± 0.098 s⁻¹
- Km [10]: 89 ± 21 µM
- kcat [10]: 24 ± 2.9 s⁻¹
